Results reported in patent US20190328910A1 (University of California, published 2019).
*: point of attachment. Benzoyl(4-F) = O=C(c1ccc(F)cc1)*

B1: FB-…(Ac)-PEG28 (peptide)
peptide: XGDLTYLKXX
modifications: N-terminal fluorobenzoyl (FB); acetyl (Ac) on the side chain of the C-terminal lysine; PEG28 attached to the C-terminal lysine
notes: N-fluorobenzoylated, C-PEGylated variant of ST1-62
B2: Ac-…(FB) (peptide)
peptide: XGDLTYLKX
modifications: N-terminal acetyl (Ac); fluorobenzoyl (FB) on the side chain of the C-terminal lysine
notes: N-acetylated variant of ST1-62
B3: ST1-61, …(FB) (peptide)
peptide: H-RGDLRELAK(Benzoyl(4-F))-NH2
SMILES: CC(C)C[C@H](NC(=O)[C@H](CCC(=O)O)NC(=O)[C@H](CCCNC(=N)N)NC(=O)[C@H](CC(C)C)NC(=O)[C@H](CC(=O)O)NC(=O)CNC(=O)[C@@H](N)CCCNC(=N)N)C(=O)N[C@@H](C)C(=O)N[C@@H](CCCCNC(=O)c1ccc(F)cc1)C(N)=O
notes: free N-terminus; also called Peptide 5
B4: FB-…(FB)-PEG28 (peptide)
peptide: XGDLTYLKXX
modifications: N-terminal fluorobenzoyl (FB); fluorobenzoyl (FB) on the side chain of the C-terminal lysine; PEG28 attached to the C-terminal lysine
notes: also called ST1-92
B5: ST1-59, …(FB) (peptide)
peptide: H-RGDLMKLAK(Benzoyl(4-F))-NH2
SMILES: CSCC[C@H](NC(=O)[C@H](CC(C)C)NC(=O)[C@H](CC(=O)O)NC(=O)CNC(=O)[C@@H](N)CCCNC(=N)N)C(=O)N[C@@H](CCCCN)C(=O)N[C@@H](CC(C)C)C(=O)N[C@@H](C)C(=O)N[C@@H](CCCCNC(=O)c1ccc(F)cc1)C(N)=O
notes: free N-terminus; also called Peptide 2
B6: FB-…(Ac) (peptide)
peptide: XGDLTYLKX
modifications: N-terminal fluorobenzoyl (FB); acetyl (Ac) on the side chain of the C-terminal lysine
notes: N-fluorobenzoylated variant of ST1-62
B7: FB-…(FB) (peptide)
peptide: XGDLTYLKX
modifications: N-terminal fluorobenzoyl (FB); fluorobenzoyl (FB) on the side chain of the C-terminal lysine
notes: as for B6
B8: Me-…(FB) (peptide)
peptide: XGDLTYLKX
modifications: N-terminal methyl (Me); fluorobenzoyl (FB) on the side chain of the C-terminal lysine
notes: N-methylated variant of ST1-62

What was measured:
αvβ6 integrin (purified) [1] = target: T1, αvβ6 integrin (purified) (UniProt P06756 31-992; P18564 22-707); test: ELISA, αvβ6 integrin
T1 construct: Purified integrin captured on plate by anti-αv antibody P2W7; also called purified integrin

αvβ3 integrin (purified) = αvβ3 integrin (purified) (UniProt P06756 31-992; P05106 27-718); test: competitive binding ELISA, purified integrin; competitor biotinylated natural ligand
Description: (§1) Anti-αᵥ capture antibody P2W7 (5 μg/mL, Novus Biologicals) was coated onto Nunc MaxiSorp 96-well plates, followed by blocking with BSA overnight at 4° C. All wells were washed 3 times with PBS, followed by plating of purified integrin (3 μg/mL) and incubating at room temperature in a humid chamber for 1 hour. Peptide solutions, titrated (1 μM-1 pM for integrin and 100 μM-100 pM for αᵥβ₃ integrin) and mixed with biotinylated natural ligand, were added to the integrin-coated wells in triplicate. After incubating for an hour at room temperature, the plate was washed 3 times with wash buffer. Captured biotinylated natural ligand was detected with ExtrAvidin-HRP and developed with TMB substrate. Half-maximal inhibitory concentration (IC₅₀) of peptides was determined fitting to sigmoidal dose-response model in GraphPad Prism 6.0 (FIG. 5A). Results are shown in FIG. 5B and below in Table 2.

αvβ8 integrin (purified) = αvβ8 integrin (purified) (UniProt P06756 31-992; P26012 43-684); test: as above
Description: as §1

αvβ6 integrin (purified) [2] = target: T1, αvβ6 integrin (purified); test: as above
Description: as §1

αvβ1 integrin (purified) = αvβ1 integrin (purified) (UniProt P06756 31-992; P05556 21-728); test: as above
Description: as §1

Chain of αvβ1 integrin (purified) (P06756 31-992, chain 1 of 2): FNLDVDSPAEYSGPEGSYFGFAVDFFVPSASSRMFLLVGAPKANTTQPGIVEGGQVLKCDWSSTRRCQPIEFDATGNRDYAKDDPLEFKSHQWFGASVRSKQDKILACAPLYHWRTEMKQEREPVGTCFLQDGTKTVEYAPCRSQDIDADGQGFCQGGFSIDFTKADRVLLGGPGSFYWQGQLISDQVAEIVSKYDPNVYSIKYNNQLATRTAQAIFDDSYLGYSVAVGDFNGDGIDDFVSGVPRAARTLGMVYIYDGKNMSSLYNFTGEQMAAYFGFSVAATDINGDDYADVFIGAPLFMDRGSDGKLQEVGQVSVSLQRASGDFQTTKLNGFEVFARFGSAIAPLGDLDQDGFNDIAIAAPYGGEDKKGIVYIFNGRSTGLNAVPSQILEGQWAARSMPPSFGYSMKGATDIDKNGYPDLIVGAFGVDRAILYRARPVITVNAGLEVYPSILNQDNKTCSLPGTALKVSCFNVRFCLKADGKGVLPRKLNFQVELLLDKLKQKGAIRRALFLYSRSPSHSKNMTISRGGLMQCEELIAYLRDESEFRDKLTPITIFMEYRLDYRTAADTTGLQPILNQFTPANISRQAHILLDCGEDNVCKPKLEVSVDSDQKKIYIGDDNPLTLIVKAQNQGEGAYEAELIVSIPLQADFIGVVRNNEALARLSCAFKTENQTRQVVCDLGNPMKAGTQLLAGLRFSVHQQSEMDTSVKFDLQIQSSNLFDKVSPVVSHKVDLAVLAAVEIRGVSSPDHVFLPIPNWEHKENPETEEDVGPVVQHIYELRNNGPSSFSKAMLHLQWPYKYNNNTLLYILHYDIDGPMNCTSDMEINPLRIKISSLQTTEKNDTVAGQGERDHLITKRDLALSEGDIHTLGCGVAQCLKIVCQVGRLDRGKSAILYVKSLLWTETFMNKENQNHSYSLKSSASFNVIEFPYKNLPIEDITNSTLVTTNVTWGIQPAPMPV
Chain of αvβ1 integrin (purified) (P05556 21-728, chain 2 of 2): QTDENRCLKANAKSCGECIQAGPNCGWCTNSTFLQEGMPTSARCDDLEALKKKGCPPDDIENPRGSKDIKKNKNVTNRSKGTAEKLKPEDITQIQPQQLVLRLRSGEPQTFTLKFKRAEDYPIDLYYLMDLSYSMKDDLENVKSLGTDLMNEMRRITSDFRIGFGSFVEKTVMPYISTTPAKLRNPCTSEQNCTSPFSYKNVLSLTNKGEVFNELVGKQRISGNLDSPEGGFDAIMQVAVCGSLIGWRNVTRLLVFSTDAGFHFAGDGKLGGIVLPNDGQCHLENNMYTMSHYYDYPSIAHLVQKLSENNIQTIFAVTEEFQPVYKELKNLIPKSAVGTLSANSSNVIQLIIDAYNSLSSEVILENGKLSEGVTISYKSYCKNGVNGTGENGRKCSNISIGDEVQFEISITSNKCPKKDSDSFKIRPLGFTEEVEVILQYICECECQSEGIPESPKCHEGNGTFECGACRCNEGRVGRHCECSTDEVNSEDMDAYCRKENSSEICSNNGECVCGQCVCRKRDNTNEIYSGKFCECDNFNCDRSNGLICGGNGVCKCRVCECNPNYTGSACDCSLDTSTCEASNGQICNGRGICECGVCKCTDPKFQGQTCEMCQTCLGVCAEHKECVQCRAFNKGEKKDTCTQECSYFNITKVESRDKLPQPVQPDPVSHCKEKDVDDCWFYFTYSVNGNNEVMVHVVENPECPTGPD
Chain of αvβ8 integrin (purified) (P06756 31-992, chain 1 of 2): as the sequence (P06756 31-992, chain 1 of 2) above
Chain of αvβ8 integrin (purified) (P26012 43-684, chain 2 of 2): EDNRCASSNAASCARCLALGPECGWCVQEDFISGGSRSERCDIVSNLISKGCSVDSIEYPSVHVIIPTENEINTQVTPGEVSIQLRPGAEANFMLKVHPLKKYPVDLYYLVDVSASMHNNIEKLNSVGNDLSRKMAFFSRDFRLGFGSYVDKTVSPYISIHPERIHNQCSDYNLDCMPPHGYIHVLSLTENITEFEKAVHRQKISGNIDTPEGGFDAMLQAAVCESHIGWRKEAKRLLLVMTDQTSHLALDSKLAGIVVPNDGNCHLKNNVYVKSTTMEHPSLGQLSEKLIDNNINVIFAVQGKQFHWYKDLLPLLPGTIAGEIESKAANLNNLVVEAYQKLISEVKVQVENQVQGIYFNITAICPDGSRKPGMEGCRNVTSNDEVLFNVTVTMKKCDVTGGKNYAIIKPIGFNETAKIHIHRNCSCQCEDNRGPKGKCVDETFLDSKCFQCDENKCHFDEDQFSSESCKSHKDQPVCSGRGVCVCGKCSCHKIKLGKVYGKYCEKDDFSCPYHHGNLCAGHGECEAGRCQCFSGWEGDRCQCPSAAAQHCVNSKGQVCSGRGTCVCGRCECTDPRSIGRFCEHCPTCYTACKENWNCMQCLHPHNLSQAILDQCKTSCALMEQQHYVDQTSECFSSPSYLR
T1 sequence (P06756 31-992, chain 1 of 2): as the sequence (P06756 31-992, chain 1 of 2) above
T1 sequence (P18564 22-707, chain 2 of 2): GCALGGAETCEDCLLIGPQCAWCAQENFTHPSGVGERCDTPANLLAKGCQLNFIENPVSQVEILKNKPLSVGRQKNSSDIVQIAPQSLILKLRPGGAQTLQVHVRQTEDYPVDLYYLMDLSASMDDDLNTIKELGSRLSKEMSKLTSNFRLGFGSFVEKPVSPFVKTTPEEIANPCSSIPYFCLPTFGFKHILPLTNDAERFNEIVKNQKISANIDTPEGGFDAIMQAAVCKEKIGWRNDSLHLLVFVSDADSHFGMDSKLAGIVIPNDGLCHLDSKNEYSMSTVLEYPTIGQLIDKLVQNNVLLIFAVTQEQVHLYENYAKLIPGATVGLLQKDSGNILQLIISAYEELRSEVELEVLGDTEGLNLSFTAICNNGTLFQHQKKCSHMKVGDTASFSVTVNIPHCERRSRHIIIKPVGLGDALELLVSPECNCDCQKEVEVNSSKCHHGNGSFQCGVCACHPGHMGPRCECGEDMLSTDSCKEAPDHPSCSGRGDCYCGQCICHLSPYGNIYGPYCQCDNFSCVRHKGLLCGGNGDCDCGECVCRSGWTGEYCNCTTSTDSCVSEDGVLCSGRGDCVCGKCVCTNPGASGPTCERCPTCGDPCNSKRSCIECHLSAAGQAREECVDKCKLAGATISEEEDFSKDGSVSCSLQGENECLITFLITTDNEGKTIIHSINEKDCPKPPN
Chain of αvβ3 integrin (purified) (P06756 31-992, chain 1 of 2): as the sequence (P06756 31-992, chain 1 of 2) above
Chain of αvβ3 integrin (purified) (P05106 27-718, chain 2 of 2): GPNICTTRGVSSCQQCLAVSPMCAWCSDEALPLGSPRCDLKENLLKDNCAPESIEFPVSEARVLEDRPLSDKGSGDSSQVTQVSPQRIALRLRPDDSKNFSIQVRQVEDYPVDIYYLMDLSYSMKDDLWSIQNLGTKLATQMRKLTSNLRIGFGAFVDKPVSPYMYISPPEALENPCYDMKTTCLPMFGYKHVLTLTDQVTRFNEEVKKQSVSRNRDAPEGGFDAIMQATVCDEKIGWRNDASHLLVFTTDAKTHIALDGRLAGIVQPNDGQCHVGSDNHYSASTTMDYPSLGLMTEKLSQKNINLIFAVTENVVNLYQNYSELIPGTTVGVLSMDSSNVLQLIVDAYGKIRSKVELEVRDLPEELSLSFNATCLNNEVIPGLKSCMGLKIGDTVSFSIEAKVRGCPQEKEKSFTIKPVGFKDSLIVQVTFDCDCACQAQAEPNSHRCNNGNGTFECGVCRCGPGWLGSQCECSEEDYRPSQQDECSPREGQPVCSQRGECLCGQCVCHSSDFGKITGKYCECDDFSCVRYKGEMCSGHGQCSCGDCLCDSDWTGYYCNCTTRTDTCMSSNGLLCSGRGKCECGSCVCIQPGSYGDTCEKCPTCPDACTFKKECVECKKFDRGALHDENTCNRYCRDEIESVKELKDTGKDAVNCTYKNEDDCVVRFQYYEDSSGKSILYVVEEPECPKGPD

Binder | IC50 (αvβ6 integrin (purified) [1]) [nM] | IC50 (αvβ3 integrin (purified)) [nM] | IC50 (αvβ8 integrin (purified)) [nM] | IC50 (αvβ6 integrin (purified) [2]) [nM] | IC50 (αvβ1 integrin (purified)) [nM]
B1 | 15.5 |  |  |  | 
B2 | 1600 |  |  |  | 
B3 |  | 300 | 2600 | 1.1 | 2300
H-RGDLADLRK(Benzoyl(4-F))-NH2 (free N-terminus; also called Peptide 3) [ST1-60, …(FB)] |  | 500 | 160 | 4.7 | 600
H-VGDLTYLKK(4‑fluorobenzoyl)-NH2 (free N-terminus; also called Peptide 1) [ST1-62, …(FB)] |  |  | 5300 | 11 | 
B4 | 17.6 |  |  |  | 
B5 |  | 2200 | 2590 | 2.7 | 900
B6 | 4.3 |  |  |  | 
B7 | 21.9 |  |  |  | 
B8 | 500 |  |  |  | 
